Experimental data from article doi:10.1101/196097.

Experiments:
[1] = target: Fluorescein (FAM)-labeled calmodulin T34C (UniProt P0DP23); test: fluorescence polarisation
[2] = target: Calcium-independent phospholipase A2β, short variant (SH-iPLA2β), wild type (Chinese hamster (cloned from CHO cells)); test: AUC
[3] = target: FAM-labeled synthetic peptide corresponding to the 1-9-14 motif of iPLA2β; test: fluorescence polarisation
[4] = target: FAM-labeled synthetic peptide corresponding to the IQ motif of iPLA2β; test: fluorescence polarisation

Kd [1] | stoichiometry N [2] | Kd [3] | Kd [4] | Substance
112 nM | 2 |  |  | Calcium-independent phospholipase A2β, short variant (SH-iPLA2β), wild type (from UniProt A0A3L7I2I8 1-807) (enzyme)
 |  | 2500 nM | 5900 nM | Calmodulin (from UniProt P0DP23 1-149) (natural protein)
> 1400 nM |  |  |  | iPLA2β W695E mutant (from UniProt A0A3L7I2I8 1-807) (enzyme)
